Source: paper PMC5259998

Target: H-OspA, freshly biotinylated (Borrelia bavariensis strain SKT-7.1)
Assay: BLI; BLItz; biotinylated H-OspA on streptavidin biosensors (250 μg/mL, 150 s); soluble sdAb at 7.25, 14.5 and 29 μM; 120 s association, 120 s dissociation; PBS-T, 0.02% Tween-20; global fitting (1:1)

| koff | kon | Binder |
| --- | --- | --- |
| 0.146 s⁻¹ | 185 M⁻¹ s⁻¹ | Soluble sdAb produced from PhC12 (VHH) VHH: RREVVESGGGLVQPGESLRVACAASGFTVSSYIMHWVRQAPGKGLEWVSYIDHGGNTVYGDSVKGRFTISRDNAKNTLALQMNSLKPEDTALYYCVRDGDNTHFVAYDYWGQGTLVTVS |
| 0.0586 s⁻¹ | 13700 M⁻¹ s⁻¹ | Soluble sdAb produced from PhC11 (VHH) VHH: QVEVVASGGGLVQAGESLRLSCTASGFTFDNVAAGWFRQAPGKEREGVACISKNGRTTDSADSVKGRFTISRDTAKNTVYLQMDKLKVEDTAEYYCAATYLNTCVLSSPPENIHYWGKGTQVTVS |
